Experimental data reported in patent US12295987B2, “Method of using a GIP/GLP1 co-agonist for diabetes” (Eli Lilly and Company, priority 2018, dated 2025).
Numbered stars: 1 amine (or outer) side, 2 acyl side, 3 side chain; on linkers, the order of the positions; unused ones are H or OH. Square brackets hold non-standard residues; d marks the D form. Side chains are listed from the residue outwards. Ends that are not written are not given here. * marks the point of attachment. C20 diacid = O=C(O)CCCCCCCCCCCCCCCCCCC(=O)*; γGlu = O=C(O)[C@H](CCC(=O)[*:2])N[*:1]; αMeL = CC(C)C[C@](C)(N)C(=O)O; αMeK = C[C@](N)(CCCCN)C(=O)O; AEEA = NCCOCCOCC(=O)O; Aib = CC(C)(N)C(=O)O

What follows are substances tested against T1, human gastric inhibitory peptide receptor (hGIPR) (Homo sapiens, UniProt P48546) (assay: cAMP pharmacological functional assay in presence of 0.1% casein, hGIPR). Settings: ratio of hGIPR to hGLP1R cAMP EC50 ratios.
T1 construct: expressed in transfected cells; host or cells: HEK293
T1 sequence (P48546 22-466): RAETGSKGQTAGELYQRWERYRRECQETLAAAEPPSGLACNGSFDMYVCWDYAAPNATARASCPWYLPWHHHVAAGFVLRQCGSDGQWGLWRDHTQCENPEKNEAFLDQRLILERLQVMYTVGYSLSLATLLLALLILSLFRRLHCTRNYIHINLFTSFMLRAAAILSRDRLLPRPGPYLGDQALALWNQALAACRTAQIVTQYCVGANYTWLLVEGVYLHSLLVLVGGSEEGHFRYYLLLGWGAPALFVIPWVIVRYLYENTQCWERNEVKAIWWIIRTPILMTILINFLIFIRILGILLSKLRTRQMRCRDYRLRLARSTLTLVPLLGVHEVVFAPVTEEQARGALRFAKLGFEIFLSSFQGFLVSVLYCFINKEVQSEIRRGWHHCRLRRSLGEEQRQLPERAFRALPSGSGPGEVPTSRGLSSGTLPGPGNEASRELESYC
Assay type: cell-based
“Y-Aib-EGT-αMeF-TSDYSI-αMeL-LDKK((2-[2-(2-Amino-ethoxy)-ethoxy]-acetyl)2-(γGlu)-CO—(CH2)18—CO2H)AQH-Aib-FIEYLIEGGPSSGAPPPS-NH2 (YXEGTXTSDYSIXLDKKAQHXFIEYLIEGGPSSGAPPPS; Aib, αMeF, αMeL; acylated lysine C20 diacid; amide; (2)..(2) Xaa at position 2 is Aib; (6)..(6) Xaa at position 6 is alpha-methyl-Phe; (13)..(13) Xaa at position 13 is alpha-methyl-Leu; MOD_RES (17)..(17) Lys at position 17 is chemically modified by conjugation of the epsilon-amino group of the Lys side chain with (2-[2-(2-amino-ethoxy)-ethoxy]-acetyl)2-(gamma-Glu)-CO-(CH2)18- CO2H; (21)..(21) Xaa at position 21 is Aib; MOD_RES (39)..(39) Ser at po) [Peptide 144]” was tested, and the “[hGIPR/hGLP1R] EC50 Ratio” value was 4.23. In the case of “Y-Aib-EGT-αMeF-TSDYSI-αMeL-LDSK((2-[2-(2-Amino-ethoxy)-ethoxy]-acetyl)2-(γGlu)-CO—(CH2)18—CO2H)AQ-Aib-AFIEYLIEGGPSSG-NH2 [Peptide 99]”, the “[hGIPR/hGLP1R] EC50 Ratio” value is reported as 3.61. In the case of “Y-Aib-EGT-αMeF-TSDYSILLDKIAQ-Aib-AFIEYLIK((2-[2-(2-Amino-ethoxy)-ethoxy]-acetyl)2-(γGlu)-CO—(CH2)18—CO2H)GG-NH2 (YXEGTXTSDYSILLDKIAQXAFIEYLIKGG; Aib, αMeF; K lipidated C20 diacid-γGlu-AEEA2; C-terminal amide; (2)..(2) Xaa at position 2 is Aib; (6)..(6) Xaa at position 6 is alpha-methyl-Phe; (20)..(20) Xaa at position 20 is Aib; MOD_RES (28)..(28) Lys at position 28 is chemically modified by conjugation of the epsilon-amino group of the Lys side chain with (2-[2-(2-amino-ethoxy)-ethoxy]-acetyl)2-(gamma-Glu)-CO-(CH2)18- CO2H; MOD_RES (30)..(30) Gly at position 30 is amidated) [Peptide 95]”, the “[hGIPR/hGLP1R] EC50 Ratio” value is reported as 2.52. For “Y-Aib-EGT-αMeF-TSDYSILLDKK((2-[2-(2-Amino-ethoxy)-ethoxy]-acetyl)2-(γGlu)-CO—(CH2)18—CO2H)AQ-Aib-AFIEYLIEGGPSSG-NH2 [Peptide 98]”, the “[hGIPR/hGLP1R] EC50 Ratio” value was 6.33. For “Y-Aib-EGTFTSDY-(D-Ser)-ILLDKK((2-[2-(2-Amino-ethoxy)-ethoxy]-acetyl)2-(γGlu)-CO—(CH2)18—CO2H)AQ-Aib-AFIEYLIEGGPSSGAPPPS-NH2 (YXEGTFTSDYXILLDKKAQXAFIEYLIEGGPSSGAPPPS; Aib, D-Ser, lipidated Lys, C-terminal amide; (2)..(2) Xaa at position 2 is Aib; (11)..(11) Xaa at position 11 is D-Ser; MOD_RES (17)..(17) Lys at position 17 is chemically modified by conjugation of the epsilon-amino group of the Lys side chain with (2-[2-(2-amino-ethoxy)-ethoxy]-acetyl)2-(gamma-Glu)-CO-(CH2)18- CO2H; (20)..(20) Xaa at position 20 is Aib; MOD_RES (39)..(39) Ser at position 39 is amidated) [Peptide 81]”, the “[hGIPR/hGLP1R] EC50 Ratio” value was 5.92. “Y-Aib-EGTFTSDY-aMeS-ILLDKK((2-[2-(2-Amino-ethoxy)-ethoxy]-acetyl)2-(γGlu)-CO—(CH2)18—CO2H)AQ-Aib-AFIEYLIEGGPSSGAPPPS-NH2 (YXEGTFTSDYXILLDKKAQXAFIEYLIEGGPSSGAPPPS; Aib, αMeS, lipidated Lys, C-terminal amide; (2)..(2) Xaa at position 2 is Aib; (11)..(11) Xaa at position 11 is alpha-methyl-Ser; MOD_RES (17)..(17) Lys at position 17 is chemically modified by conjugation of the epsilon-amino group of the Lys side chain with (2-[2-(2-amino-ethoxy)-ethoxy]-acetyl)2-(gamma-Glu)-CO-(CH2)18- CO2H; (20)..(20) Xaa at position 20 is Aib; MOD_RES (39)..(39) Ser at position 39 is amidated) [Peptide 68]” was tested, and the “[hGIPR/hGLP1R] EC50 Ratio” value was 4.72. For “Y-Aib-EGTFTSDYSI-αMeL-LD-Aib-K((2-[2-(2-Amino-ethoxy)-ethoxy]-acetyl)2-(γGlu)-CO—(CH2)18—CO2H)AQ-Aib-AFIEYLIEGGPSSGAPPPS-NH2 (YXEGTFTSDYSIXLDXKAQXAFIEYLIEGGPSSGAPPPS; Aib, αMeL, lipidated Lys, C-terminal amide; (2)..(2) Xaa at position 2 is Aib; (13)..(13) Xaa at position 13 is alpha-methyl-Leu; (16)..(16) Xaa at position 16 is Aib; MOD_RES (17)..(17) Lys at position 17 is chemically modified by conjugation of the epsilon-amino group of the Lys side chain with (2-[2-(2-amino-ethoxy)-ethoxy]-acetyl)2-(gamma-Glu)-CO-(CH2)18- CO2H; (20)..(20) Xaa at position 20 is Aib; MOD_RES (39)..(39) Ser at position 39) [Peptide 60]”, the “[hGIPR/hGLP1R] EC50 Ratio” value was 4.47. “Y-Aib-EGTFTSDYSI-αMeL-LDEK((2-[2-(2-Amino-ethoxy)-ethoxy]-acetyl)2-(γGlu)-CO—(CH2)18—CO2H)AQ-Aib-AFIEYLIEGG-NH2 (YXEGTFTSDYSIXLDEKAQXAFIEYLIEGG; Aib, αMeL; K lipidated C20 diacid-γGlu-AEEA2; C-terminal amide; (2)..(2) Xaa at position 2 is Aib; (13)..(13) Xaa at position 13 is alpha-methyl-Leu; MOD_RES (17)..(17) Lys at position 17 is chemically modified by conjugation of the epsilon-amino group of the Lys side chain with (2-[2-(2-amino-ethoxy)-ethoxy]-acetyl)2-(gamma-Glu)-CO-(CH2)18- CO2H; (20)..(20) Xaa at position 20 is Aib; MOD_RES (30)..(30) Gly at position 30 is amidated) [Peptide 63]” was tested, and the “[hGIPR/hGLP1R] EC50 Ratio” value was 4.09. For “Y-Aib-EGTFTSDYSI-αMeL-LDEK((2-[2-(2-Amino-ethoxy)-ethoxy]-acetyl)2-(γGlu)-CO—(CH2)18—CO2H)AQ-Aib-AFIEYLLEGGPSSGAPPPS-NH2 (YXEGTFTSDYSIXLDEKAQXAFIEYLLEGGPSSGAPPPS; Aib, αMeL, lipidated Lys, C-terminal amide; (2)..(2) Xaa at position 2 is Aib; (13)..(13) Xaa at position 13 is alpha-methyl-Leu; MOD_RES (17)..(17) Lys at position 17 is chemically modified by conjugation of the epsilon-amino group of the Lys side chain with (2-[2-(2-amino-ethoxy)-ethoxy]-acetyl)2-(gamma-Glu)-CO-(CH2)18- CO2H; (20)..(20) Xaa at position 20 is Aib; MOD_RES (39)..(39) Ser at position 39 is amidated) [Peptide 66]”, the “[hGIPR/hGLP1R] EC50 Ratio” value was 7.41. In the case of “Y-Aib-EGTFTSDYSI-αMeL-LDEK((2-[2-(2-Amino-ethoxy)-ethoxy]-acetyl)2-(γGlu)-CO—(CH2)18—CO2H)AQ-αMeK-AFIEYLLE-Aib-GPSSGAPPPS-NH2 (Y[Aib]EGTFTSDYSI[αMeL]LDEK([AEEA-AEEA-γGlu-C20 diacid])AQ[αMeK]AFIEYLLE[Aib]GPSSGAPPPS-NH2; N-terminus assumed; SMILES CC[C@H](C)[C@H](NC(=O)[C@H](Cc1ccccc1)NC(=O)[C@H](C)NC(=O)[C@](C)(CCCCN)NC(=O)[C@H](CCC(N)=O)NC(=O)[C@H](C)NC(=O)[C@H](CCCCNC(=O)COCCOCCNC(=O)COCCOCCNC(=O)CC[C@H](NC(=O)CCCCCCCCCCCCCCCCCCC(=O)O)C(=O)O)NC(=O)[C@H](CCC(=O)O)NC(=O)[C@H](CC(=O)O)NC(=O)[C@H](CC(C)C)NC(=O)[C@](C)(CC(C)C)NC(=O)[C@@H](NC(=O)[C@H](CO)NC(=O)[C@H](Cc1ccc(O)cc1)NC(=O)[C@H](CC(=O)O)NC(=O)[C@H](CO)NC(=O)[C@@H](NC(=O)[C@H](Cc1ccccc1)NC(=O)[C@@H](NC(=O)CNC(=O)[C@H](CCC(=O)O)NC(=O)C(C)(C)NC(=O)[C@@H](N)Cc1ccc(O)cc1)[C@@H](C)O)[C@@H](C)O)[C@@H](C)CC)C(=O)N[C@@H](CCC(=O)O)C(=O)N[C@@H](Cc1ccc(O)cc1)C(=O)N[C@@H](CC(C)C)C(=O)N[C@@H](CC(C)C)C(=O)N[C@@H](CCC(=O)O)C(=O)NC(C)(C)C(=O)NCC(=O)N1CCC[C@H]1C(=O)N[C@@H](CO)C(=O)N[C@@H](CO)C(=O)NCC(=O)N[C@@H](C)C(=O)N1CCC[C@H]1C(=O)N1CCC[C@H]1C(=O)N1CCC[C@H]1C(=O)N[C@@H](CO)C(N)=O) [Peptide 22]”, the “[hGIPR/hGLP1R] EC50 Ratio” value is reported as 6.41.
